Earlier results in publication PMC7421905.

Molecular target: Laminin 411 (Homo sapiens) (UniProt Q16363)
Chain of UniProt Q16363 (Q16363 25-1823, chain 1 of 3): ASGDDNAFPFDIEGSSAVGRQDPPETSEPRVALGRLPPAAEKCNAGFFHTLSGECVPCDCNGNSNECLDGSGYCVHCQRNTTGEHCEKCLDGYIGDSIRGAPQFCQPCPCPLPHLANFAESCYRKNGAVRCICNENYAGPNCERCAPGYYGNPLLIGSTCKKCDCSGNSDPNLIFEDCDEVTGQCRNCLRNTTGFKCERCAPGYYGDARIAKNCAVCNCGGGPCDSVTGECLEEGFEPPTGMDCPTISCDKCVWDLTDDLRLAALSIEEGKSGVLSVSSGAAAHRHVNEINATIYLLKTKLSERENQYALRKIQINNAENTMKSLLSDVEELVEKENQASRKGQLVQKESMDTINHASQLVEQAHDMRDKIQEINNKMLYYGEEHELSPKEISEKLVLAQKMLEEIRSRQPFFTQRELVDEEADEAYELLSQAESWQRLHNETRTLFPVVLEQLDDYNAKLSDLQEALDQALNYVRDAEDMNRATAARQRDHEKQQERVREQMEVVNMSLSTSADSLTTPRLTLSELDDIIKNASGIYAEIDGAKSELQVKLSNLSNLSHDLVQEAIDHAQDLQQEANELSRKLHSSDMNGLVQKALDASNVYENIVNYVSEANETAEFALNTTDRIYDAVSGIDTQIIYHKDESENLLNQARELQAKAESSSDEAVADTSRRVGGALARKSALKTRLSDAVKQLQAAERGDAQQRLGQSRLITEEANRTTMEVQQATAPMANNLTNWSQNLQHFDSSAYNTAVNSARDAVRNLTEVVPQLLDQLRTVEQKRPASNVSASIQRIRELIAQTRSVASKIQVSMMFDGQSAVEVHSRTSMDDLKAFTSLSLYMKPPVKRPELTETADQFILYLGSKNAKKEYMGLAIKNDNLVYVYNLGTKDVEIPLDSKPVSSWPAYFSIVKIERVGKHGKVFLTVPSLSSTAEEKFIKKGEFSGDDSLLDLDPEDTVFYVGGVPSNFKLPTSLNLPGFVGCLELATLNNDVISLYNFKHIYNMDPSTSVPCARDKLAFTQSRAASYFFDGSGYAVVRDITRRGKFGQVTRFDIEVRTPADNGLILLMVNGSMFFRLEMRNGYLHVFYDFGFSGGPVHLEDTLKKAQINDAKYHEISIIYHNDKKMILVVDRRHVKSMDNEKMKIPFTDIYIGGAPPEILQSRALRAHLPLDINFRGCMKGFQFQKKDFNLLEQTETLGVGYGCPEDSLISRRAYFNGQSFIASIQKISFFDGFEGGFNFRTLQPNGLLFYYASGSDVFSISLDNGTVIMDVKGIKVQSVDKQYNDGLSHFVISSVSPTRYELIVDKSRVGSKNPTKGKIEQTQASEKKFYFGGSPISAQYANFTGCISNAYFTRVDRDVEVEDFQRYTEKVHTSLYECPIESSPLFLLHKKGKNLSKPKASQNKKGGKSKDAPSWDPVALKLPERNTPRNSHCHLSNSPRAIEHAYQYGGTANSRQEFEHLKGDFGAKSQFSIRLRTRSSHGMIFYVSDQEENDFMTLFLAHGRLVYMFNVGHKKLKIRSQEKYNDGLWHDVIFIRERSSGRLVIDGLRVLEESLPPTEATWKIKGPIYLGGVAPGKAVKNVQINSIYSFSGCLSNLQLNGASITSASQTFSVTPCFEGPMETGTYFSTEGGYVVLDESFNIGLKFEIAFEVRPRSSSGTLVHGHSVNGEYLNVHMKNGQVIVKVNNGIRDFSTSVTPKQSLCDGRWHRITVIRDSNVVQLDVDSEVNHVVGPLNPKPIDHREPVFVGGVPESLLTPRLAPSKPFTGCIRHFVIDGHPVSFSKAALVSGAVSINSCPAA
Chain of UniProt Q16363 (P07942 22-1786, chain 2 of 3, further chain): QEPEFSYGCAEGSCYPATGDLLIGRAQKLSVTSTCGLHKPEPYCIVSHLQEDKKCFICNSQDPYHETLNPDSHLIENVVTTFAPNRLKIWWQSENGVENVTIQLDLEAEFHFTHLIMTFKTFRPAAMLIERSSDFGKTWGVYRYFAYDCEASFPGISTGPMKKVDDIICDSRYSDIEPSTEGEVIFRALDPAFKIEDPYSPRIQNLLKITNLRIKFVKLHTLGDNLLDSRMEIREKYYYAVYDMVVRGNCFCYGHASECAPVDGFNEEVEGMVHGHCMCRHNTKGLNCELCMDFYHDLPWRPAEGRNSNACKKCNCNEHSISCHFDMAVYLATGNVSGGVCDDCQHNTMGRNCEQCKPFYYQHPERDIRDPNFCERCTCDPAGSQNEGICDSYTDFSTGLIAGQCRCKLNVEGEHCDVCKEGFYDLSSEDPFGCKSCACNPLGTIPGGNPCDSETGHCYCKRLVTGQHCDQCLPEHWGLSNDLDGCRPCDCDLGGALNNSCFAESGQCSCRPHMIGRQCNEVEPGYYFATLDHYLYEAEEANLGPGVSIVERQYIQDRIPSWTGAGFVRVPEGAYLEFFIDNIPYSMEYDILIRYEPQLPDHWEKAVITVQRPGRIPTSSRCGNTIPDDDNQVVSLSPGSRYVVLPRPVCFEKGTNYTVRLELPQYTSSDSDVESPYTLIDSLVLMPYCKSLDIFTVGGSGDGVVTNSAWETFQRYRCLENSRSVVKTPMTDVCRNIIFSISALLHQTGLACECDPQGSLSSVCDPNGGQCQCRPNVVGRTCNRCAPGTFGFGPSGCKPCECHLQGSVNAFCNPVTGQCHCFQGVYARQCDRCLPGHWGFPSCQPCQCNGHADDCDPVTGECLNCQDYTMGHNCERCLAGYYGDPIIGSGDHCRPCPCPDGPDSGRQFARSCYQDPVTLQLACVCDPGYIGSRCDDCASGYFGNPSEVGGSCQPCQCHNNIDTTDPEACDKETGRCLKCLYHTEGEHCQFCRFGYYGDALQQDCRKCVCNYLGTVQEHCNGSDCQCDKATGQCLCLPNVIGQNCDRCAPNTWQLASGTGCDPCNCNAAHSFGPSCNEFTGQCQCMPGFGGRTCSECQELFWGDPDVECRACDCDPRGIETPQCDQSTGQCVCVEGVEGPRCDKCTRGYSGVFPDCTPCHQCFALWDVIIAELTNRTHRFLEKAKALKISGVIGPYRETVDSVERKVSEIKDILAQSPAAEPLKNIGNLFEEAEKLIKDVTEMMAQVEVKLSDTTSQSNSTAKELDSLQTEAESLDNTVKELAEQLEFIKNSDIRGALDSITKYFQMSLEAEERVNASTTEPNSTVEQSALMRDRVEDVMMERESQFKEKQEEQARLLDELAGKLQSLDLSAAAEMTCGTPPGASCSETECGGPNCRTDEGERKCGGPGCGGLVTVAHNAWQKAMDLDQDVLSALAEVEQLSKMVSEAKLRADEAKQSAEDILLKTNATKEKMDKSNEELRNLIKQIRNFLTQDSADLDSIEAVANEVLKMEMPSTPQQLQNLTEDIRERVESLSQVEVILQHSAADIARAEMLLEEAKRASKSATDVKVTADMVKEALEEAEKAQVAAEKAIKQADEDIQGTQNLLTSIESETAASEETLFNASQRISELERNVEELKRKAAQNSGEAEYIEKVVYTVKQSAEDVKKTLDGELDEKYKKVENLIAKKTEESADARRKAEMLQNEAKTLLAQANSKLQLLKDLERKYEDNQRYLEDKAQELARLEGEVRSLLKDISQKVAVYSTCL
Chain of UniProt Q16363 (P11047 34-1609, chain 3 of 3, further chain): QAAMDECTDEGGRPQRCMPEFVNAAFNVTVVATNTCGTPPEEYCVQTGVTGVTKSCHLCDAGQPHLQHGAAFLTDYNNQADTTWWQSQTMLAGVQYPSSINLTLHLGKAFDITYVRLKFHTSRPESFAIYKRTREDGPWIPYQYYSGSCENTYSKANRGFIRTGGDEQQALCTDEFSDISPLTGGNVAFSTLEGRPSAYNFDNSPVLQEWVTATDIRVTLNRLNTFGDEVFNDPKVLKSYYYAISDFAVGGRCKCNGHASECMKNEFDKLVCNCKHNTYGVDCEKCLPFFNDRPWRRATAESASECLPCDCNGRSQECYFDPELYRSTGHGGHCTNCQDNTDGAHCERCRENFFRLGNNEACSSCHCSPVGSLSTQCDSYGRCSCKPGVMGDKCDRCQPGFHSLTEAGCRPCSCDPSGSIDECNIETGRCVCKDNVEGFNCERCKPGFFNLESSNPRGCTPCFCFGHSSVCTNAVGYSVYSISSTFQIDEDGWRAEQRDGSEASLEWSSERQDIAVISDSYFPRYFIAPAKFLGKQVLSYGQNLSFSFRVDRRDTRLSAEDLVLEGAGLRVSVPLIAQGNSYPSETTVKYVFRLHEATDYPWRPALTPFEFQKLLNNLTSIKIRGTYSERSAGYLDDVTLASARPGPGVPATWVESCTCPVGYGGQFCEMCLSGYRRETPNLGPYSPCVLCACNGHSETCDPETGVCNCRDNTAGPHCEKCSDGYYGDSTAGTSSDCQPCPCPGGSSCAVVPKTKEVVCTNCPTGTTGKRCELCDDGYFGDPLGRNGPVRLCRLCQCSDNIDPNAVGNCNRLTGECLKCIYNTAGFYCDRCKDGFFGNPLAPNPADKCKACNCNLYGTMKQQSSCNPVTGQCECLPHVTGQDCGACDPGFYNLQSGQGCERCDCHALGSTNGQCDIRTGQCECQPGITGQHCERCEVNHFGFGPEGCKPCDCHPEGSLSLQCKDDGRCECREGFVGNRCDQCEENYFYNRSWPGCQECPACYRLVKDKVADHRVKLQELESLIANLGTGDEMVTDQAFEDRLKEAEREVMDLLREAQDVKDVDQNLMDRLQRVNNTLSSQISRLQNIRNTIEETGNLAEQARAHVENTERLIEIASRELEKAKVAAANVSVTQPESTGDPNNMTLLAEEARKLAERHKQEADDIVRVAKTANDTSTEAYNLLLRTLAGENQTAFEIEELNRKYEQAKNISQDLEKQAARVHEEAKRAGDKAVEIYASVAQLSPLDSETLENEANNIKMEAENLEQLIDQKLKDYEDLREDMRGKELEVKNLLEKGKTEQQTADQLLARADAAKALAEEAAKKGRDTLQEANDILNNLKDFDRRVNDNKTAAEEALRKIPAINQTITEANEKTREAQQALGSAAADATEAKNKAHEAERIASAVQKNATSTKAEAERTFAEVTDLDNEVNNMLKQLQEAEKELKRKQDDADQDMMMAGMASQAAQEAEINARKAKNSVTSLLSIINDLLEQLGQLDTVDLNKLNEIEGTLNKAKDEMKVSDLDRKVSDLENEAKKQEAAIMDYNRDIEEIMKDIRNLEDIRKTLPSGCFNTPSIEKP

Kd: 27 nM
Substance: CD146-Fc (from UniProt P43121)
